According to patent US8969081B2, “Caudal motor neuron derived from embryonic stem cells under conditions essentially free of any retinoid” (The Trustees of Columbia University in the City of New York, priority 2008, dated 2015):
Entries after “also recorded” stand apart in the source; their conditions may differ.

Tests used:
[1] = tested on: differentiating ES cells / ES-MNs; assay: Rostro-caudal patterning of differentiating ES cells (Hox / positional marker immunostaining); type: cell-based, mouse; conditions: for Rostro-caudal positional marker expression / segmental identity: EBs supplemented on Day 3, markers examined two to four days later; for Rostro-caudal identity of MNs after FGF2 (Hoxd9): 100 ng/ml on day 3
Experimental: (§1) Differentiation of cervical level motor neurons from mouse ES cells was performed as previously described (Wichterle et al., 2002). For differentiation of caudal brachial level MNs from ES cells, ES cells were grown in ES cell medium for two days, dissociated and plated into non-adherent tissue culture dishes using ADFNK medium at a density of 20,000 cells/ml. Medium is changed each day but not on Day 3 and Day 4 of differentiation (three and four days after dissociation of ES cells and plating into differentiation medium, respectively). Addition of any factors to differentiating embryonic bodies (EBs) was performed on Day 3. These included: 1 μg/ml Dickopf-1 Dkk1 (R&D Systems), FGF Receptor Inhibitor (PD173074, 100 nM final concentration), FGFb (Recombinant Human, FTF-basic, 120-17, PeproTech), rhGdf11 (R&D Systems, Cat#1958-GD). GDNF (10 ng/ml, R&D Systems) was supplemented on Day 5 of differentiation in selected cultures.
(§2) For immunocytochemical analysis, embryonic bodies (EBs) were dissociated using 0.05% Trypsin-EDTA on Day 6 and plated at low densities on laminin coated coverslips using ADFNB medium supplemented with 10 ng/ml Glial cell-derived neurotrophic factor (GDNF). For quantification of MN subtypes, EBs were collected on Day 6 and dissociated using 0.05 Trypsin-EDTA. Dissociated cells were plated on laminin coated coverslips using ADFNB medium (DMEM/F12, Neurobasal, 1 ml B27 50× supplement and optional 5 ng/ml of GDNF to enhance survival of MN cultures) and fixed with 4% PFA one day later.
(§3) Immunocytochemistry on ES cell-derived MNs and EBs was performed as previously described (Wichterle et al., 2002). Antibodies against the following proteins were used in the analysis during this study: Otx2, Hoxa5, Hoxc8, Hoxc6, Hoxc9, Hoxd9, Hoxd10, Foxp1, Lhx3, Pea3, Scip, NeuN, dsRed, NF.
For each experiment, 10 distinct randomized image fields were taken using a confocal microscope LSM Zeiss Meta 510. Expression of all markers used for quantifications was gated to GFP positive cells, ES cell-derived spinal MNs. Images were analyzed for the expression of the above stated markers in the context of the ES cell-derived caudal brachial MNs. Each quantification is the result of at least three independent experiments (three independent differentiation experiments).
All experiments were performed with HBG3 ES cell line harboring Hb9-GFP transgene (Wichterle et al., 2002) and key experiments were confirmed using a control MM13 ES cell line. Differentiation of HBG3 ES cell line under RA/Hh conditions into rostral cervical MNs was performed as previously described (Wichterle et al., 2002; Wichterle and Peljto, 2008). For production of cervical MNs, ES cells were plated at 50,000 cells/ml in ADFNK differentiation medium [Advanced D-MEM/F-12 (Invitrogen): Neurobasal medium (Invitrogen) (1:1), 10% Knockout Serum Replacement (Invitrogen), […] L-Glutamine (Invitrogen), 0.1 mM β-mercaptoethanol (Sigma), and Pen/Strep (Invitrogen)]. Medium was completely changed on days 1, 2 and of differentiation. EBs were split 1:4 on day 2 of differentiation and the medium was supplemented with 1 μM all-trans retinoic acid (RA, Sigma) and Hh agonist (0.5 μM SAG, Calbiochem or 1 μM HhAg1.3, (Frank-Kamenetsky et al., 2002)). To generate caudal brachial level MNs from ES cells under FGF/Hh conditions, ES cells were plated into non-adherent tissue culture dishes in ADFNK medium (˜20,000 cells/ml). Embryoid bodies (EBs) were split 1:4 on day 2 of differentiation and the medium was changed on days 1, 2 and 5. Selected cultures were supplemented with the following reagents: 10 nM-1 μM RA, 10 nM-1 μM Hh Agonist, 1 μg/ml recombinant mouse Dickkopf-1 (R&D Systems), 50-100 nM FGF/VEGF Receptor Tyrosine Kinase Inhibitor (PD173074, Calbiochem) (Mohammadi et al., 1998), 100-625 ng/ml recombinant human bFGF (PeproTech), 20 ng/ml recombinant human Gdf11/Bmp11 (R&D Systems), 10 ng/ml recombinant rat GDNF (R&D Systems). […]

ES-MNs = assay: Motor pool identity of ES-MNs (Pea3, Scip) in response to GDNF; type: cell-based, mouse
Experimental: as §1, §2, §3
All experiments were performed with HBG3 ES cell line harboring Hb9-GFP transgene (Wichterle et al., 2002) and key experiments were confirmed using a control MM13 ES cell line. Differentiation of HBG3 ES cell line under RA/Hh conditions into rostral cervical MNs was performed as previously described (Wichterle et al., 2002; Wichterle and Peljto, 2008). For production of cervical MNs, ES cells were plated at 50,000 cells/ml in ADFNK differentiation medium [Advanced D-MEM/F-12 (Invitrogen): Neurobasal medium (Invitrogen) (1:1), 10% Knockout Serum Replacement (Invitrogen), […] L-Glutamine (Invitrogen), 0.1 mM β-mercaptoethanol (Sigma), and Pen/Strep (Invitrogen)]. Medium was completely changed on days 1, 2 and of differentiation. EBs were split 1:4 on day 2 of differentiation and the medium was supplemented with 1 μM all-trans retinoic acid (RA, Sigma) and Hh agonist (0.5 μM SAG, Calbiochem or 1 μM HhAg1.3, (Frank-Kamenetsky et al., 2002)). To generate caudal brachial level MNs from ES cells under FGF/Hh conditions, ES cells were plated into non-adherent tissue culture dishes in ADFNK medium (˜20,000 cells/ml). Embryoid bodies (EBs) were split 1:4 on day 2 of differentiation and the medium was changed on days 1, 2 and 5. Selected cultures were supplemented with the following reagents: 10 nM-1 μM RA, 10 nM-1 μM Hh Agonist, 1 μg/ml recombinant mouse Dickkopf-1 (R&D Systems), 50-100 nM FGF/VEGF Receptor Tyrosine Kinase Inhibitor (PD173074, Calbiochem) (Mohammadi et al., 1998), 100-625 ng/ml recombinant human bFGF (PeproTech), 20 ng/ml recombinant human Gdf11/Bmp11 (R&D Systems), 10 ng/ml recombinant rat GDNF (R&D Systems).
For immunocytochemical analysis, EBs were dissociated using 0.05% Trypsin-EDTA (Invitrogen) on day 6 and plated at low density on coverslips (Carolina Biological) first coated with 0.001% solution of poly-1-ornithine (Sigma; diluted in water) and then with mouse laminin ([…] final concentration in PBS; Invitrogen). Cultures were plated and maintained using ADFNB culture medium [Advanced D-MEM/F12:Neurobasal (1:1), 1× B27 supplement (Invitrogen), […] L-Glutamine, and 1× Pen/Strep]. […]

[2] = Example 1, 1 μg/ml on Day 3 of differentiation

## CCN(CC)CCCCNc1ncc2cc(-c3cc(OC)cc(OC)c3)c(NC(=O)NC(C)(C)C)nc2n1 [PD173074, reference compound]
[1]; Example 1, 100 nM on Day 3 of differentiation
  Hoxc8+ cells: complete loss of Hoxc8+ cells
[1]; Example 2, 50 nM on day 3 of differentiation (FIG. 22H)
  Specification of Hoxc8+ ES-MNs: generation of ES-MNs that expressed Hoxa5 but lacked Hoxc8 expression; also recorded: selectively prevented specification of caudal brachial Hoxc8^+ ES-MNs

## FGF-2: basic fibroblast growth factor, recombinant human bFGF
[1]; Example 1
  Rostro-caudal positional marker expression / segmental identity: induced predominantly thoracic identity marked by Hoxd9 expression
[1]; Example 1, in the presence of RA
  Induction of brachial or thoracic markers by FGF-2: not sufficient to induce expression of brachial or thoracic markers
[1]; Example 2, stained day 7, listed as FGF
  Rostro-caudal identity of MNs after FGF2 (Hoxd9): significant increase in Hoxd9 expressing cells
[1]; Example 2, stained day 7, listed as FGF2
  Rostro-caudal identity of MNs after FGF2 (Hoxd9): Hoxd9^+ thoracic; also recorded: increase in the number of Hoxd9^+ MNs
[1]; up to 625 ng/ml FGF2 added to 1 μM RA/Hh differentiation condition
  Specification of Hoxc8+ ES-MNs by FGF2 added to RA/Hh: did not result in the specification of Hoxc8^+ ES-MNs

B1: Gdf11: Growth differentiation factor 11, recombinant human Gdf11/Bmp11 (protein, UniProt O95390 299-407, looked up)
Growth/differentiation factor …: NLGLDCDEHSSESRCCRYPLTVDFEAFGWDWIIAPKRYKANYCSGQCEYMFMQKYPHTHLVQQANPRGSAGPCCTPTKMSPINMLYFNDKQQIIYGKIPGMVVDRCGCS
[1]; Example 1
  Rostro-caudal positional marker expression / segmental identity: emergence of even more caudal Hoxd10 positive lumbar nerve cells
[1]; Example 2, 20 ng/ml on day 3, stained day 7
  Rostro-caudal identity of MNs after Gdf11 (Hoxd10): Hoxd10^+ lumbar; also recorded: specification of MNs expressing Hoxd10; also recorded: significant increase in Hoxd10 expressing ES-MNs

B2: Dkk1: Wnt antagonist, recombinant mouse Dickkopf-1 (protein, UniProt O54908 32-272, looked up)
Dickkopf-related protein 1: TLNSVLINSNAIKNLPPPLGGAGGQPGSAVSVAPGVLYEGGNKYQTLDNYQPYPCAEDEECGSDEYCSSPSRGAAGVGGVQICLACRKRRKRCMRHAMCCPGNYCKNGICMPSDHSHFPRGEIEESIIENLGNDHNAAAGDGYPRRTTLTSKIYHTKGQEGSVCLRSSDCAAGLCCARHFWSKICKPVLKEGQVCTKHKRKGSHGLEIFQRCYCGEGLACRIQKDHHQASNSSRLHTCQRH
[1]; [2]
  Neural specification (NeuN): did not interfere with neural specification
  Otx2 expression (rostral neural identity): induction of Otx2 expression
  Spinal identity (Hoxa5, Hoxc8, Hoxd9, Hoxd10 expression): lost their spinal identity
[1]; Example 2, 1 μg/ml on day 2, Otx2 on day 5
  Otx2+ forebrain/midbrain neural cells: appearance of Otx2^+ forebrain/midbrain neural cells
[1]; Example 2, 1 μg/ml on day 2 of differentiation
  Specification of spinal cells (Hox and MN markers): lacked spinal character; also recorded: prevented specification of spinal cells

B3: GDNF: glial cell line-derived neurotrophic factor, recombinant rat GDNF (protein, UniProt Q07731 78-211, looked up)
Glial cell line-derived …: SPDKQAAALPRRERNRQAAAASPENSRGKGRRGQRGKNRGCVLTAIHLNVTDLGLGYETKEELIFRYCSGSCEAAETMYDKILKNLSRSRRLTSDKVGQACCRPVAFDDDLSFLDDSLVYHILRKHSAKRCGCI
ES-MNs; GDNF 10 ng/ml on day 5
  Pea3+ ES-MNs expressing Isl1: ~90%
  Pea3+ ES-MNs expressing Lhx1: ~10%
ES-MNs; brachial MNs
  Percentage of Scip+ MNs, presence versus absence of GDNF: not significantly different
ES-MNs; caudal brachial ES-MNs, 10 ng/ml GDNF on day 5
  LMC (FoxP1+) MNs expressing Pea3: ~20%
ES-MNs; cervical ES-MNs
  Pea3 expression in cervical (RA/Hh differentiated) MNs treated with GDNF: no Pea3 expressing MNs were detected; also recorded: not sufficient to induce Pea3 expression; also recorded: do not acquire expression of Pea3
ES-MNs; presence or absence of GDNF
  Scip+ FoxP1+ ES-MNs: ~10%
